{"source": "patent US20120003180A1", "about": "(TEXAS A AND M UNIVERSITY SYSTEM, published 2012)", "binders": {"B1": {"name": "Human perlecan Domain V (DV), recombinant, with C-terminal 6×His tag (ligand)", "chain": "EIKITFRPDSADGMLLYNGQKRVPGSPTNLANRQPDFISFGLVGGRPEFRFDAGSGMATIRHPTPLALGHFHTVTLLRSLTQGSLIVGDLAPVNGTSQGKFQGLDLNEELYLGGYPDYGAIPKAGLSSGFIGCVRELRIQGEEIVFHDLNLTAHGISHCPTCRDRPCQNGGQCHDSESSSYVCVCPAGFTGSRCEHSQALHCHPEACGPDATCVNRPDGRGYTCRCHLGRSGLRCEEGVTVTTPSLSGAGSYLALPALTNTHHELRLDVEFKPLAPDGVLLFSGGKSGPVEDFVSLAMVGGHLEFRYELGSGLAVLRSAEPLALGRWHRVSAERLNKDGSLRVNGGRPVLRSSPGKSQGLNLHTLLYLGGVEPSVPLSPATNMSAHFRGCVGEVSVNGKRLDLTYSFLGSQGIGQCYDSSPCERQPCQHGATCMPAGEYEFQCLCRDGFKGDLCEHEENPCQLREPCLHGGTCQGTRCLCLPGFSGPRCQQGSGHGIAESDWHLEGSGGNDAPGQYGAYFHDDGFLAFPGHVFSRSLPEVPETIELEVRTSTASGLLLWQGVEVGEAGQGKDFISLGLQDGHLVFRYQLGSGEARLVSEDPINDGEWHRVTALREGRRGSIQVDGEELVSGRSPGPNVAVNAKGSVYIGGAPDVATLTGGRFSSGITGCVKNLVLHSARPGAPPPQPLDLQHRAQAGANTRPCPSHHHHHH", "notes": "Cloned from HUVEC cDNA into pSecTag2A or pCepPu, secreted from 293 cells and purified on Ni beads; also called endorepellin; rhDV"}}, "key": {"[1]": {"target": "T1, α5β1 integrin protein, covalently immobilised on the optical biosensor cuvette", "T1 construct": "The methods call the immobilised protein 'the α5β1 protein' and also 'immobilized α5'; The results speak of α5β1 integrin; also called α5β1 protein; immobilized α5 integrin", "test": "optical biosensor (IAsys), α5β1 immobilised, DV free in solution", "protocol": "(§1) Binding assays were carried out using an optical biosensor (IAsys; Affinity Sensors, UK) as described¹⁰⁸. In brief, to covalently bind the α5β1 protein, designated as an acceptor, onto the surfaces of a sensor, carboxylate groups present on the surface were activated by injection of a 1:1 mixture of 0.1 M N-hydroxysuccinimide and 0.4 M N-Ethyl-3-(3-dimethylaminopropyl) carbodiimide (Pierce). The acceptor dissolved in phosphate buffered saline (PBS) was then allowed to bind to the activated surface until a response plateau was reached. The residual active groups were blocked by an injection of 100 μL of 1 M Tris-HCl (pH 8.5).\n(§2) The binding of DV to α5β1 was also investigated. DV's DGR sequence was mutated to AGR (D3904A) to determine whether this could disrupt DV binding to α5β1 as measured with optical biosensor (FIG. 18A)."}, "[2]": {"target": "T1, α5β1 integrin protein, covalently …", "test": "optical biosensor (IAsys), α5β1 immobilised, DV free in solution; Kd from Koff/Kon", "protocol": "as §1, §2"}}, "data": [{"binder": "B1", "values": [{"measurement": "koff", "setting": "[1]", "value": 0.72, "unit": "s⁻¹"}, {"measurement": "Kd", "setting": "[2]", "value": 160, "unit": "nM"}]}]}
